Test results: PMC8154523

Columns and labels:
Test in all cases: NMR
Details in all cases: 30 °C
Glu43 (position 43, […]) = system: Glu43 (position 43, […])
Asp32 (position 32, […]) = system: Asp32 (position 32, […])
Glu28 (position 28, […]) = system: Glu28 (position 28, […])
Glu73 (position 73, […]) = system: Glu73 (position 73, […])
Asp46 (position 46, […]) = system: Asp46 (position 46, […])
Asp77 (position 77, […]) = system: Asp77 (position 77, […])
[1] = 50 mM NaCl (plus 20 mM phosphate and 5 mM polyanionic sclx8), D-fructose-bound RSL in the presence of 5 mM sclx8 (binding has mM affinity and is pH dependent)
[2] = 50 mM NaCl (plus 20 mM phosphate), D-fructose-bound RSL, no sclx8 (0 mM)

Substance: Ralstonia solanacearum lectin (RSL), fucose-binding lectin (Ralstonia solanacearum)
- pKa (Glu43 (position 43, […]); [1]): 6.2±0.01
- pKa (Glu43 (position 43, […]); [2]): 5.9±0.01
- pKa (Asp32 (position 32, […]); [1]): 3.7±0.01
- pKa (Asp32 (position 32, […]); [2]): 1.7±0.02
- pKa (Glu28 (position 28, […]); [1]): < 2.0
- pKa (Glu28 (position 28, […]); [2]): < 2.0
- pKa (Glu73 (position 73, […]); [1]): < 2.0
- pKa (Glu73 (position 73, […]); [2]): < 2.0
- pKa (Asp46 (position 46, […]); [1]): 4.2±0.01
- pKa (Asp46 (position 46, […]); [2]): 3.5±0.01
- pKa (Asp77 (position 77, […]); [1]): < 2.0
- pKa (Asp77 (position 77, […]); [2]): < 2.0
